According to the supplement of paper PMC9112550, “Optimization of the antimicrobial peptide Bac7 by deep mutational scanning” (BMC Biology, 2022):

Test system: Escherichia coli TOP10
Assay: shrunken log2 fold change of peptide-encoding DNA abundance (4.5 h post-induction vs induction); higher = less antimicrobial activity (less host growth inhibition)
Details: time post-induction: 4.5 h; library: site-saturation at positions 5, 18, 19, 20
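Note: peptides expressed intracellularly from a pBAD plasmid library in pooled LB shake-flask culture, induced with 0.3% L-arabinose, DNA abundance read by NGS, three biological replicates, DESeq2 with apeglm shrinkage.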

| Sequence | shrunken log2 fold change |
| --- | --- |
| RRIRMRPPRLPRPRPRPRYPPRP | 0.0438 |
| RRIRIRPPRLPRPRPRPKGFPRP | 0.0347 |
| RRIRGRPPRLPRPRPRPMRQPRP | 0.453 |
| RRIRARPPRLPRPRPRPPSGPRP | 0.597 |
| RRIRQRPPRLPRPRPRPVHAPRP | 0.0261 |
| RRIRYRPPRLPRPRPRPVIKPRP | -0.585 |
| RRIRIRPPRLPRPRPRPDDGPRP | -0.184 |
| RRIRSRPPRLPRPRPRPELKPRP | -0.0512 |
| RRIRLRPPRLPRPRPRPDTGPRP | -0.243 |
| RRIRSRPPRLPRPRPRPSATPRP | 0.168 |
| RRIRERPPRLPRPRPRPIYYPRP | -0.726 |
| RRIRMRPPRLPRPRPRPWRKPRP | 0.506 |
| RRIRFRPPRLPRPRPRPKMWPRP | 0.348 |
| RRIRNRPPRLPRPRPRPTGMPRP | 0.236 |
| RRIRDRPPRLPRPRPRPSDNPRP | -0.0807 |
| RRIRMRPPRLPRPRPRPTNHPRP | 0.0232 |
| RRIRVRPPRLPRPRPRPPQMPRP | 0.236 |
| RRIRCRPPRLPRPRPRPGWEPRP | 0.253 |
| RRIRARPPRLPRPRPRPSGEPRP | 0.65 |
| RRIRDRPPRLPRPRPRPPAHPRP | 0.56 |
| RRIRLRPPRLPRPRPRPKYYPRP | -1.1 |
| RRIRWRPPRLPRPRPRPMKHPRP | -0.0254 |
| RRIRCRPPRLPRPRPRPRQPPRP | 0.249 |
| RRIRPRPPRLPRPRPRPSVEPRP | -0.00032 |
| RRIRERPPRLPRPRPRPHLEPRP | -0.0328 |

| Sequence | shrunken log2 fold change |
| --- | --- |
| RRIRWRPPRLPRPRPRPMITPRP | 0.0975 |
| RRIRCRPPRLPRPRPRPMSEPRP | -0.0508 |
| RRIRYRPPRLPRPRPRPRFWPRP | 0.184 |
| RRIRGRPPRLPRPRPRPGVRPRP | 0.659 |
| RRIRIRPPRLPRPRPRPAWQPRP | 0.342 |
| RRIRMRPPRLPRPRPRPNWEPRP | 0.0757 |
| RRIRTRPPRLPRPRPRPWDEPRP | -0.167 |
| RRIRGRPPRLPRPRPRPVVCPRP | 0.812 |
| RRIRKRPPRLPRPRPRPCPRPRP | 0.163 |
| RRIRDRPPRLPRPRPRPPPKPRP | 1.09 |
| RRIRCRPPRLPRPRPRPRNKPRP | -0.102 |
| RRIRQRPPRLPRPRPRPNYIPRP | -0.445 |
| RRIRVRPPRLPRPRPRPNSVPRP | -0.00107 |
| RRIRWRPPRLPRPRPRPWLHPRP | -0.0248 |
| RRIRHRPPRLPRPRPRPVQMPRP | 0.0393 |
| RRIRIRPPRLPRPRPRPHTAPRP | 0.055 |
| RRIRFRPPRLPRPRPRPKLKPRP | 0.0386 |
| RRIRARPPRLPRPRPRPVCCPRP | 0.573 |
| RRIRNRPPRLPRPRPRPVMCPRP | -0.0207 |
| RRIRCRPPRLPRPRPRPILVPRP | -0.0457 |
| RRIRRRPPRLPRPRPRPQLQPRP | 0.413 |
| RRIRHRPPRLPRPRPRPFLRPRP | -0.173 |
| RRIRMRPPRLPRPRPRPFYGPRP | 0.0715 |
| RRIRNRPPRLPRPRPRPLRPPRP | 0.998 |
| RRIRQRPPRLPRPRPRPSIWPRP | -0.0257 |

| Sequence | shrunken log2 fold change |
| --- | --- |
| RRIRKRPPRLPRPRPRPYRKPRP | 0.0413 |
| RRIRVRPPRLPRPRPRPKQWPRP | 0.326 |
| RRIRCRPPRLPRPRPRPSESPRP | 0.258 |
| RRIRRRPPRLPRPRPRPHIYPRP | -0.0628 |
| RRIRMRPPRLPRPRPRPRKFPRP | 0.247 |
| RRIRQRPPRLPRPRPRPNFDPRP | -0.347 |
| RRIRIRPPRLPRPRPRPGFAPRP | 0.282 |
| RRIRIRPPRLPRPRPRPQKWPRP | -0.0915 |
| RRIRPRPPRLPRPRPRPAHPPRP | 0.273 |
| RRIRWRPPRLPRPRPRPHWAPRP | -0.102 |
| RRIRGRPPRLPRPRPRPWMQPRP | -0.539 |
| RRIRGRPPRLPRPRPRPPMKPRP | 0.138 |
| RRIRSRPPRLPRPRPRPDGAPRP | 0.289 |
| RRIRPRPPRLPRPRPRPKNPPRP | 0.0941 |
| RRIRSRPPRLPRPRPRPDSWPRP | 0.0247 |
| RRIRFRPPRLPRPRPRPRMPPRP | 0.145 |
| RRIRRRPPRLPRPRPRPQLPPRP | 0.283 |
| RRIRQRPPRLPRPRPRPKVWPRP | 0.153 |
| RRIRWRPPRLPRPRPRPNVYPRP | -0.234 |
| RRIRPRPPRLPRPRPRPCFDPRP | 0.0273 |
| RRIRDRPPRLPRPRPRPCCAPRP | 0.58 |
| RRIRERPPRLPRPRPRPYMWPRP | -0.452 |
| RRIRMRPPRLPRPRPRPTVKPRP | -0.0616 |
| RRIRRRPPRLPRPRPRPMYYPRP | -0.232 |
| RRIRCRPPRLPRPRPRPCMGPRP | -0.241 |

| Sequence | shrunken log2 fold change |
| --- | --- |
| RRIRIRPPRLPRPRPRPNDPPRP | -0.19 |
| RRIRLRPPRLPRPRPRPRVYPRP | 0.224 |
| RRIRQRPPRLPRPRPRPLALPRP | 0.318 |
| RRIRARPPRLPRPRPRPSWNPRP | -0.19 |
| RRIRPRPPRLPRPRPRPSNPPRP | -0.0794 |
| RRIRHRPPRLPRPRPRPPLKPRP | -0.00744 |
| RRIRCRPPRLPRPRPRPDQEPRP | 0.0455 |
| RRIRHRPPRLPRPRPRPKNKPRP | -0.521 |
| RRIRQRPPRLPRPRPRPYHYPRP | -0.711 |
| RRIRWRPPRLPRPRPRPNLYPRP | -0.169 |
| RRIRDRPPRLPRPRPRPTHYPRP | -0.103 |
| RRIRTRPPRLPRPRPRPWFAPRP | 0.0386 |
| RRIRGRPPRLPRPRPRPMYQPRP | -0.0304 |
| RRIRKRPPRLPRPRPRPAAYPRP | 0.361 |
| RRIRMRPPRLPRPRPRPNPGPRP | 0.0378 |
| RRIRERPPRLPRPRPRPTWKPRP | -0.012 |
| RRIRSRPPRLPRPRPRPIMEPRP | -0.182 |
| RRIRFRPPRLPRPRPRPAMWPRP | 0.0848 |
| RRIRCRPPRLPRPRPRPMARPRP | 0.352 |
| RRIRERPPRLPRPRPRPIHCPRP | -0.118 |
| RRIRDRPPRLPRPRPRPPIWPRP | 0.305 |
| RRIRCRPPRLPRPRPRPMCWPRP | 0.0297 |
| RRIRNRPPRLPRPRPRPLPKPRP | 0.402 |
| RRIRPRPPRLPRPRPRPQSCPRP | -0.0478 |
| RRIRSRPPRLPRPRPRPVKSPRP | -0.127 |

| Sequence | shrunken log2 fold change |
| --- | --- |
| RRIRHRPPRLPRPRPRPLNIPRP | -0.386 |
| RRIRNRPPRLPRPRPRPMIRPRP | -0.0231 |
| RRIRVRPPRLPRPRPRPEIWPRP | 0.223 |
| RRIRHRPPRLPRPRPRPAMFPRP | 0.0207 |
| RRIRQRPPRLPRPRPRPHVCPRP | -0.0223 |
| RRIRARPPRLPRPRPRPSLAPRP | 0.54 |
| RRIRDRPPRLPRPRPRPSSTPRP | 0.00883 |
| RRIRCRPPRLPRPRPRPYIQPRP | -0.3 |
| RRIRKRPPRLPRPRPRPHKVPRP | -0.033 |
| RRIRQRPPRLPRPRPRPYIYPRP | -0.0737 |
| RRIRQRPPRLPRPRPRPNQVPRP | -0.0722 |
| RRIRCRPPRLPRPRPRPAMKPRP | -0.104 |
| RRIRVRPPRLPRPRPRPMNFPRP | -0.349 |
| RRIRTRPPRLPRPRPRPGLNPRP | -0.213 |
| RRIRWRPPRLPRPRPRPHVLPRP | -0.096 |
| RRIRCRPPRLPRPRPRPGSDPRP | -0.0369 |
| RRIRVRPPRLPRPRPRPGGNPRP | -0.0392 |
| RRIRTRPPRLPRPRPRPRIYPRP | -0.304 |
| RRIRRRPPRLPRPRPRPCESPRP | 0.0471 |
| RRIRGRPPRLPRPRPRPKWKPRP | 0.202 |
| RRIRKRPPRLPRPRPRPTKQPRP | -0.0553 |
| RRIRERPPRLPRPRPRPHFNPRP | -0.744 |
| RRIRPRPPRLPRPRPRPIWFPRP | -0.0151 |
| RRIRSRPPRLPRPRPRPFLRPRP | -0.0915 |
| RRIRDRPPRLPRPRPRPVSVPRP | -0.0329 |

| Sequence | shrunken log2 fold change |
| --- | --- |
| RRIRVRPPRLPRPRPRPSIWPRP | -0.205 |
| RRIRMRPPRLPRPRPRPHASPRP | 0.116 |
| RRIRNRPPRLPRPRPRPYIAPRP | -0.172 |
| RRIRARPPRLPRPRPRPNSWPRP | 0.422 |
| RRIRPRPPRLPRPRPRPFLVPRP | -0.0765 |
| RRIRDRPPRLPRPRPRPTAKPRP | -0.00144 |
| RRIRERPPRLPRPRPRPNIMPRP | -0.444 |
| RRIRDRPPRLPRPRPRPTKIPRP | 0.0599 |
| RRIRNRPPRLPRPRPRPEYHPRP | 0.0524 |
| RRIRTRPPRLPRPRPRPIAHPRP | 0.00363 |
| RRIRLRPPRLPRPRPRPTEAPRP | -0.00104 |
| RRIRMRPPRLPRPRPRPVNHPRP | -0.327 |
| RRIRDRPPRLPRPRPRPMGKPRP | 3.67 |
| RRIRSRPPRLPRPRPRPMHHPRP | -0.0364 |
| RRIRMRPPRLPRPRPRPHRTPRP | -0.177 |
| RRIRPRPPRLPRPRPRPIYDPRP | -0.251 |
| RRIRTRPPRLPRPRPRPDVYPRP | 0.00573 |
| RRIRSRPPRLPRPRPRPLLLPRP | -0.0475 |
| RRIRRRPPRLPRPRPRPDGGPRP | 0.149 |
| RRIRQRPPRLPRPRPRPTKFPRP | -0.203 |
| RRIRLRPPRLPRPRPRPCWVPRP | -0.00196 |
| RRIRQRPPRLPRPRPRPEEEPRP | 0.00797 |
| RRIRQRPPRLPRPRPRPGQWPRP | 0.00718 |
| RRIRARPPRLPRPRPRPRDNPRP | 0.295 |
| RRIRQRPPRLPRPRPRPGTGPRP | -0.121 |
